Results published in article PMC4800440 (Nature Communications, 2016).
“And” between values parts separate entries of the source, which are not always exact repeats. Equal values may be shown once.

B1: TIF2 (623–772), His-tb-TIF2, expressed alone for the complex with ERβ-EF (domain or fragment, human, UniProt Q15596 623-772, looked up)
chain: SERADGQSRLHDSKGQTKLLQLLTTKSDQMEPSPLASSLSDTNKDSTGSLPGSGSTHGTSLKEKHKILHRLLQDSSSPVDLAKLTAEATGKDLSQESSSTAPGSEVTIKQEPVSPKKKENALLRYLLDKDDTKDIGLPEITPKLERLDSK
notes: also called transcriptional intermediary factor 2
B2: human oestrogen receptor beta ligand-binding domain ERβ-EF (255–530) (domain or fragment, UniProt Q92731 255-530, looked up)
chain: VRELLLDALSPEQLVLTLLEAEPPHVLISRPSAPFTEASMMMSLTKLADKELVHMISWAKKIPGFVELSLFDQVRLLESCWMEVLMMGLMWRSIDHPGKLIFAPDLVLDRDEGKCVEGILEIFDMLLATTSRFRELKLQHKEYLCVKAMILLNSSMYPLVTATQDADSSRKLAHLLNAVTDALVWVIAKSGISSQQQSMRLANLLMLLSHVRHASNKGMEHLLNMKCKNVVPVYDLLLEMLNAHVLRGCKSSITGSECSPAEDSKSKEGSQNPQSQ
notes: Estradiol (E2) present throughout; Tag removed with TEV protease; the thioredoxin tag was separated from the complex by gel filtration; also called ERβ LBD; Trx-His-tev-ERβ-EF (255–530); source: E. coli BL21(DE3), with 10 μM estradiol; not shown: thioredoxin, N-terminal, cleaved; His, N-terminal, cleaved

Columns and labels:
[1] = target: B2; assay: SEC; conditions: partners not purified
[2] = target: B1; assay: native MS; conditions: both partners purified
[3] = target: T1, TIF2 (623–772), (His)6-thrombin-TIF2, co-expressed with GRtm-E (human, UniProt Q15596 623-772); conditions: both partners purified
T1 construct: Same limits as m2; here the tags were removed by thrombin cleavage; not shown: His6, N-terminal, cleaved
T1 sequence (looked up): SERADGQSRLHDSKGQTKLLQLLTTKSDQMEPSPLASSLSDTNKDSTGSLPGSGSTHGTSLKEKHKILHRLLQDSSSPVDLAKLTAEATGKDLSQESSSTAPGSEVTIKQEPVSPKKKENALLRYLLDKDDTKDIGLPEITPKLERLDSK

B1
binding result [1]: binds

B2
stoichiometry N [2]: 2 ERβ-EF per TIF2

B3: GR_LBD triple mutant C638A, W557T and W712S (residue 524–777) (domain or fragment, human, UniProt P04150 524-777, looked up)
chain: TLPQLTPTLVSLLEVIEPEVLYAGYDSSVPDSTTRIMTTLNMLGGRQVIAAVKWAKAIPGFRNLHLDDQMTLLQYSWMFLMAFALGWRSYRQSSANLLCFAPDLIINEQRMTLPAMYDQCKHMLYVSSELHRLQVSYEEYLCMKTLLLLSSVPKDGLKSQELFDEIRMTYIKELGKAIVKREGNSSQNSQRFYQLTKLLDSMHEVVENLLNYCFQTFLDKTMSIEFPEMLAEIITNQIPKYSNGNIKKLLFHQK
notes: Dexamethasone present throughout; Tags removed with thrombin; The bioinformatics methods print the cysteine as Cys 636, the production methods as C638A; also called GRtm-E; GRtm LBD; not shown: NusA, N-terminal, cleaved; His6, N-terminal, cleaved
stoichiometry N [3]: 2 GR per TIF2 and 1 GRtm-E per TIF2
